# According to the DeepSol protein solubility set:
# Experiment: soluble on expression in E. coli; label from the status in PepcDB or PDB records
row,Sequence,soluble on expression in E. coli
1,MGSDKIHHHHHHMTKKVLILGAHGKIARLAEKEFLEKTDDSLKLFLRKASRLNPVQPDRETVIEGDATNLEQLVAAMQGVDAVYANLAGGDIKQQAQAVVKAMDKVGIKRLVWISTLGIYDEVPGKFGEWNNSTLGSYITNYRAAADVIEDSDLDYTIVRPAWLTNNDEVDFEVTQKGEVFKGTEVSRKSIAHIVVELIQNNTELKHSIGVNKPNTDGDKPSWY,not soluble
2,MGSDKIHHHHHHMTKSDLLFDKFNDKHGKFLVFFGTFVDTPKLGELRIREKTSVGVLNGIIRFVNRNSLDPVKDCLDHDSSLSPEDVTVVDIIGKDKTRNNSFYFPGFVDTHNHVSQYPNVGVFGNSTLLDWLEKYTFPIEAALANENIAREVYNKVISKTLSHGTTTVAYYNTIDLKSTKLLAQLSSLLGQRVLVGKVCMDTNGPEYYIEDTKTSFESTVKVVKYIRETICDPLVNPIVTPRFAPSCSRELMQQLSKLVKDENIHVQTHLSENKEEIQWVQDLFPECESYTDVYDKYGLLTEKTVLAHCIHLTDAEARVIKQRRCGISHCPISNSSLTSGECRVRWLLDQGIKVGLGTDVSAGHSCSILTTGRQAFAVSRHLAMRETDHAKLSVSECLFLATMGGAQVLRMDETLGTFDVGKQFDAQMIDTNAPGSNVDMFHWQLKEKDQMQEQEQEQGQDPYKNPPLLTNEDIIAKWFFNGDDRNTTKVWVAGQQVYQI,not soluble
3,MGSDKIHHHHHHMTLATMKLQILSDLHIDSYVRQSHPIGHIPKTDADIVLVAGDTANSDIGMPWLQEQAARLQVPLITIAGNHEYFNEDVLHFDKKLATWDNYDSESKQGVQFLQCQYIDIGEVRILGCTLWTDYQYQANEDTMVAALRFMRDYKQIYAGSELFSPEVSMQIHAKQRQWLKQALITAKALGKKTVVMSHHSISPLSVSEKYANLPSNAAFVSDLSQWMYEDWAPALWVHGHTHEAFDYHIHKTRVIVNPRAYPNEVSSTALAFAWDRVIDIG,not soluble
4,MGSDKIHHHHHHMTLDPDAKLPETEEGTVVYNTDPLIIRSHYEIDYIHSYAQDSEFFRALGRKKLMGSKCKKCGYVYATPRSHCMMCGSETEWYELPLKGRVHTYTTCYFSGEEFLNETPFNLILVEFDGVNSLFMSRLIGAETKDIYIGMPVKAKFRRNLKMNVTDVYFVPDVEK,not soluble
5,MGSDKIHHHHHHMTLINKLKQHLSDSQITQAQLAREAGVNAGALSAYLNDNYKGNIADVEAKLAAYLEKKAVQAREFVEAPAFIETATSRQIFKTLEFAQIANCLATVYGMSGVGKTKAIQEFAKSHANVWLVTASPSRSSLSEILYEIALELGISDAPRRKGTLSRLIARKIKGTEGLLIVDEADHLPYEALEELRIMQEEAGIGLVLVGNDKVYTRMKGGISPSHEYARLWSRVAKNTSIQKTKKADTQAVAQAWGLETDEEALKVMQSITETGGGLRILTQTYACRNGSKRIWQVD,not soluble
6,MGSDKIHHHHHHMTLKDIAEMAGVSTMTVSNVINGKTSRVSQKTRDKINSIIEEYNYVPNMNARSLSNNSSHIIGVVTFLEEKEYASGYNYFENPYVSTMIGTIETELHKNGYFTMLQSVSRSSDILSLVKNWNVDGMILVFPTSAQNLEKLMDAANCPIATFDSNYSHPNLINVISDDEKGLYLSTKYMINHGHTEIAFVADYEGNIVLTKRFNGYKKALEDSHIPFRPEYIFSYPPSYEGGIEAGRAIAGSKSPITAVVTTADICAIGIMEGARLGGYRVPIDLSVIGYDNLNLCQYTVPKLTSVSQNVPKKARLATELLLKKIHDNESDSNLGEIIDVEIVDRQSVISLY,not soluble
7,MGSDKIHHHHHHMTLNNLEIDTLVVGAGQAGVAMSEHLSKLGVPHLVLERNRIAQAWRTGRWDSLVANGPAWHDRFPGLEFNLDADAFAGKDQVADYFEQYVRKYNLPVRTGIEVKRVVRNSDRPGFTIDTSEGVIRANRVVAATGPFQKPVIPAIAPKDSNLHQIHSAAYFNPEQLPEGAVLVVGAGSSGVQIAEELMRAGRQVYLSVGAHDRPPRAYRNRDFCWWLGVLGEWDAEIAKPGREHVTIAVSGARGGHTVDFRALAHQGMTLVGLTQSFENGVARFQDNLVENINRGDDNYLALLDAADAYIERNGLDLPEEPEARQRLADPECMRNPLQQLDLAKAGVSSIIWATGYGVDFSWLQVDTFDANGKPQHQRGVAREPGVYFLGLPWLSRRGSSFIWGVWHDAKHVAGHIATQRTYTAYRDREQRAADEQQTAKISNVSTLGAH,not soluble
8,MGSDKIHHHHHHMTNKTNAASLDIVGIGNAIVDVLTTTDDSFLKKLSFDKGSMTLIDEKKAKELYEMTTNRIQKSGGSVANSLACVAQLGGKAAFIGRVRDDKLGEIFTEEISTTGTIFKTPPSSVGPSTARCIIFVTPDAQRTMCTYLGASVLLEPKDIDLSLVREAKILYLEGYLWDNPAAKNAFIKAAEIAKNAGRKVALSLSDSFCVSRHRESFIKLVEEHIDILFANEDEITNLYETSSLSNALEKLKKKCDLAAITIGEKGSILISNGKEIKIDPFILGKAIDTTGAGDLYAGAFLKGYADGLKPELSAKIGSICAGQIVTQLGSRSNTDLLNLINSHLEA,not soluble
9,MGSDKIHHHHHHMTNNRLERFAHNLDWNLLRTFVVVVEEGSITAAANRLLLQQPAVSMALKRLEQTIGQKLIDRRPGRFDLTEAGEKLHLQCRDIFAAVIRLPHVLETAGEEITGHLNIHAVSHAHNPAWDRKLGSFFRMHPKVTISMTVATTVDVLSAVERNIATMGLCDGIIPEGLNKSFHIRERYALYCGRGHRLFGVEGVVFHDLRGDPYIAFIADVLGGQHMNSVTAVRAVGSFGQQVRGVSCNVEEVMRLIAANVGIGMLPDHIASEAVAAGDLWQLPPYRDLPTTDVFRISNPNSILNPAEAAFLAHVADTQALDHCHHQQD,not soluble
10,MGSDKIHHHHHHMTNQLLSEQWFEHQAKVTEAIGRPGFAASLFAALGVIRPIQATTVYLYPHDGMPCALFEQDDKAPWQPEGNVSRYLSGFYLLDPFYGACVEQVESGCYGLFEVAPDHFEVSEYYQSFYRHSHLEDELNYILQVAPGQSLAVSLAFTDKLDGQSRTRFGLITPWVLAVLGKHFAGLDSRAGRFENILEQRIHAALNNFGSSLLTERECRIAQLILRGHSTKSLAERLGVSEDTIKSHRKNVYAKLDIGTQSELFSLFIDALANAQGVLGKDPLESYMGKLR,not soluble
11,MGSDKIHHHHHHMTNQTQSMALMVPQSSSSLEAYIHSAHNIPMLEANEEYELAKRLQETGDIQAAKQLIMSHLRFVIHVAKGYAGYGLPQADLIQEGNIGLMKAVKRFDPDVGVRLVSFAVHWIKAEIHEYVLKNWRIVKVATTKAQRKLFFNLRKAKKRLGWFSDEEVTMVAENLGVSKSDVTEMESRMAAQDPAFDLASDNDDDQDYAPVHYLEDHSSDIASQVENDNFEADNQTRLLAAIKTLDERSQHILQARWLDEEKTTLQELAATYQVSAERIRQLEKNAMNKLKGRMEM,not soluble
12,MGSDKIHHHHHHMTNTIPNWIKLNNEIMIQKDGKYQFEKDKEAVHSYFVDYINQNTVFFHDLKEKLDYLIKNDYYEEEFLSKYTFEQIKSIYKIAYSYKFRFPSFMSAFKFYNDYALKTNDKTKILERYEDRVSIVALYCADGDYEKAVEEVHTMMKQEYQPATPTFLNAGRKRRGEMVSCFLLEVGDSLNDISRAIDISMQLSKLGGGVALNLNKLRAKGEAIKDVENATKGVVGVMKLLDNAFRYADQMG,not soluble
13,MGSDKIHHHHHHMTNWLPDLTGGAGPLYQRLADSVEAGIDQGVIGAGTKLPPQRDLAYDIGTTVGTVGRAYQLLRERGLVSGEVGRGTYVLGRRADGVKPEAPDVSVEGTRYVDAPQDKLRFDSTAAPDVGQGAVVADVLSRTAQDHPHEISSYTRDFPGRWYEAGARWLARNSFRPAADGIVPTLGTHAAVMAAIAALTTPGDYVAFEHLTYSQISRSAGLIGRRTALVASDDEGLDPADFERVCAQKHPRMIFLMPTAQNPTLTTLSAGRREAIARVAREYNVILIEDDLYGHLTDDPTPLLAEYAPERTIVAGGLSKSVAAGIRGGWLSCPPAYRHRIRVAHKMMTGGMPFLLAEVNTRLVLSGQASDIRKRCIAEISARIAIVRETLAGFAFKSHDKVPFVWLTLPDPWLSGTFKNACLEHGVLIDDEDEFKAGRSEQVFHGVRFGTSQPRQRGDVANGVAVIRRLLDEGRAGYDSFS,not soluble
14,MGSDKIHHHHHHMTNYIEEYCAQIRRMGSAGLIAKPILVDQDGTYTMTYVPHEHLNLGARLVLVSTTPGHAHVRLAAAVTEELLQARTPGRVIQRENKRRVELGGQLIRPNLIRMLDHFRAPELVGLPHAAALWNEGFEQFQPLALLPCATTRRGLAFNGTLEDLLAAPMLRAAFEAHFLGALRQMRPDAFYIALGRTAWSGLRHAASRRLLAKHQLLGMMPVPARAGNMVRYFLREISANDLSPNDPVRHRVDWLDAAHTELMANVQKVRAANMPPEGPNYLIA,not soluble
15,MGSDKIHHHHHHMTQEDKKLSCTDCALLNCHKKDKTFPQFCLTTHTPEETIEGVNELYRKDDFVAKLSNAAAEIEGTYYGKLTRVEEIMAFAKRIGAKKIGIATCVGLMSEARIFAKILKAKGLESYGIICKVGAVDKTQVGVPEELKVNKGCHESLCNPVLQATLLNEEKTDLNVIVGLCVGHDSLFIKYSEAPVTTLITKDRVLGHNPAAALYASGFYYRRLLQEGDL,not soluble
16,MGSDKIHHHHHHMTRLCRTFQTAPAAIPNDNSAKFLVSGLTSKGFQAPDWLVPDIEDGTAPSMKDEAVDNIIEHIPDHADDFAGDILPRVEWAYDDANARERGIEQVTRLAEAVGEELDGFVFPKVGRLDDVRDAAGVIADAERDAGLPEGTLEMAIILETAPGRSDLREICQYATDSRLSGLVFGPVDYTAELGGRTLDGERPRWDGLLEALSNETSAADIVAIGGPFDQLFHERAGVTYYNAEGYADQVAYEATIGIDGSWSLHPKQTEQANRIHMPTVEEMERDLHKIESFNEAKREGTGAVVVDGQMVDEATYKNFANTVKTVRAIDETHPAQTEAYYDDDLLARARDVELIFG,not soluble
17,MGSDKIHHHHHHMTSAGTIEDAKGPAELRLALRQMLGEDIVLSETEEMLRFCRDWHGDVTTGTVAVIRPRSTQQVAAAVKACRELGLSIVPQGGNTGLVLGAIPDAPERQVVLSLSRMNRIRKIDPADFSAVVESGCILSELKDAIAKMGMFFPLALGAQGSCQIGGNVSTNAGGVNVLRYGMTRELVLGLEVVLPDGSILEGLSTLRKDNRGIDLKQLFIGAEGTLGIITAVSITLTPYPDHVATALLGLASLEDAIRLYRRARRDCCDLMSAFEFMPPLAFTLAQEAMPDLPIPISAEYPAYVLMEISGSGLVDVDDLMQRFLEGAMEEGLVLDGTIAASQTQARNLWLIREGMNEGQAKRGTHMRTDISVPLSQLASFVEEAEKAVSEALPGAVSVSYGHVGDGNVHLNVLPPAGSTPEERIQLIYKAKTVVNEVLDRYTGSISAEHGIGRLKRPDFDARLPATRRKLLTALKHAVDPEMIMNPGCQLRF,not soluble
18,MGSDKIHHHHHHMTSSFTDYCKFFNRILSEVQETQEQAIIKGAHLVSEAVMNGGRFYVFGSGHSHMIAEEIYNRAGGLALVTAILPPELMLHERPNKSTYLERIEGLSKSYLKLHQVTNKDVIMIISNSGRNTVPVEMAIESRNIGAKVIAMTSMKHSQKVTSRHKSGKKLYEYADVVLDNGAPVGDAGFQIANSEIYSGATSDSIGCFLAQALIVETLHLLVQQGFEPPVFKSSNVDGADLYNDKIFNEYVKW,not soluble
19,MGSDKIHHHHHHMTSSRSRYLSVMGRELHVTEWGDEAAPALVMWHGLARTGRDFDTLAAHFCDRYRVVCPDTLGRGLSGWSRVPRRDYTLAAYMKHALELLGLLGIDRVTWIGTSMGGALGMLLAAGPLAGRMDRLVMNDIGPTLNPVAVERIRNYLAQHPSFRTMTEFEAYLRQVYRPYGFQTDLEWRRMTETSARRRGDGRITPHYDPAVMRVFAETAGDYEAWGEYDLITCPTLVLRGAESDLLLPEVAQEMTRRGPKARLVTVAGCGHAPSLNVPEQIGVIEDFLA,not soluble
